Data: patent US20230406950A1 (LYVGEN BIOPHARMA, published 2023)

What was measured:
[1] = target: T1, human PD-L1 expressed on cells (human, UniProt Q9NZQ7 19-290); assay: flow cytometry (FACS), MFI, CHO cells expressing human PD-L1
T1 construct: whole, on cells; also called human PD-L1 expressed on CHO cells; Raji-PD-L1 cells
Description: Exemplary anti-PD-1/CD137 bi-specific antibodies were analyzed by FACS for their binding properties to human PD-1 and/or human CD137 expressed on CHO cells. Briefly, cultured cells were harvested, counted and cell viability was evaluated using the Trypan Blue exclusion method. Viable cells were then adjusted to 2×10⁶ cells per mL in PBS containing 2% BSA. 100 μL of this cell suspension were further aliquoted per well into a V-bottom 96-well plate. […] After incubation for 2 hours at 4° C., cells were centrifuged (3 min, 1000× g), washed with 250 μL/well BSA-containing FACS Stain Buffer, resuspended and incubated for an additional 1 hour at 4° C. with 100 μL/well fluorochrome-conjugated anti-IgG antibody for detection of the bisepecific antibody. Cells were then washed with 250 μL/well BSA-containing FACS Stain Buffer, resuspended in 100 μL/well FACS Stain Buffer, acquired and analyzed using a FACS machine. Binding of the bispecific antibodies to human PD-1 or human CD137 expressing CHO cells were evaluated and the mean fluorescence intensity is plotted in histograms or dot plots.
Exemplary anti-PD-L1/CD137 bi-specific antibodies were analyzed by FACS for their binding properties to human PD-L1 or human CD137 expressed on CHO cells, following the procedures disclosed in Examples 1 above.

[2] = target: T2, ECD portion of human CD137 protein (mouse IgG2a Fc tag) (human, UniProt Q07011 24-186); assay: bridging ELISA: human CD137 ECD (mouse IgG2a Fc tag) coated, antibody titrated, then human PD-L1 ECD (His tag), HRP anti-His detection; A450-A620
T2 construct: extracellular domain; also called recombinant human CD137; not shown: mouse IgG2a Fc tag
Description: (§1) Exemplary anti-PD-L1/CD137 bi-specific antibodies were analyzed by ELISA for their simultaneous binding to recombinant human PD-L1 and human CD137. Briefly, the ECD portion of human CD137 protein (mouse IgG2a Fc tag) was diluted and coated onto an ELISA plate with a volume of 100 μL/well by incubation at 4° C. overnight. The next day, the plate was blocked with PBST-BSA buffer, then serially diluted samples of anti-PD-L1/CD137 bi-specific antibodies were pipetted into appropriate wells at 50 μL/well, and the plate was incubated for 1 h followed by Washing. Human PD-L1 ECD fragment (His tag) was added into the plate at 50 μL/well. After 1-hour incubation at room temperature, HRP-conjugated anti-His tag antibody was added into the plate at 100 μL/well and […]. The plate was incubated for 1 hour at room temperature followed by washing. TMB substrate solution was added at 100 μL/well and the color development was stopped by adding 100 uL/well Stop Solution (2N H₂SO₄). Absorbance at 450 nm and 620 nm was read by Tecan F200 Pro plate reader. GraphPad 7.0, “[Agonist] vs. response—Variable slope (four parameters)” was used to plot the binding data and calculate binding EC50 values.

[3] = target: T3, Human PD-L1 ECD fragment (His tag) (human, UniProt Q9NZQ7 19-238); assay: as above
T3 construct: extracellular domain; also called recombinant human PD-L1; not shown: His tag
T3 sequence (Q9NZQ7 19-238): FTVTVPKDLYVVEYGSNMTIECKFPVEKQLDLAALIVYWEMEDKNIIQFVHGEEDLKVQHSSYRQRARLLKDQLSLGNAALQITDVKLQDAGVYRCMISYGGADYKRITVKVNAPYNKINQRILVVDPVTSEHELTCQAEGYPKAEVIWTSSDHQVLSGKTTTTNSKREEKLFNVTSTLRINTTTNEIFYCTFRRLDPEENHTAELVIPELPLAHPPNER
Description: as §1

T1 sequence (Q9NZQ7 19-290): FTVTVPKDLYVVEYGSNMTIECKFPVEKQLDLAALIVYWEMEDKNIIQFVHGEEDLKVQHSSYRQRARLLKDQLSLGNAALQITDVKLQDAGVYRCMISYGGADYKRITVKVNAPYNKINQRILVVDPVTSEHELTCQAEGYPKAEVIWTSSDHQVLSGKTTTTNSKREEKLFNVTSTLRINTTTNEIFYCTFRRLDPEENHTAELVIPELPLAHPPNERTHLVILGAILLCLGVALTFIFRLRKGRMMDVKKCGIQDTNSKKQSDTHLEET

B1: Ly347 (bispecific antibody, human IgG1, kappa)
heavy: QVQLVQSGAEVKKPGASVKVSCKASGYTFTDFWMSWVRQAPGQGLEWMGQIYPNTGTTHSNEKFKGRVTMTRDTSTSTVYMELSSLRSEDTAVYYCARSYHISTTPNWFAYWGQGTLVTVSSASTKGPSVFPLAPSSKSTSGGTAALGCLVKDYFPEPVTVSWNSGALTSGVHTFPAVLQSSGLYSLSSVVTVPSSSLGTQTYICNVNHKPSNTKVDKKVEPKSCDKTHTCPPCPAPELLGPSVFLFPPKPKDTLMISRTPEVTCVVVDVSHEDPEVKFNWYVDGVEVHNAKTKPREEQYNSTYRVVSVLTVLHQDWLNGKEYKCKVSNKALPAPIEKTISKAKGQPREPQVYTLPPSREEMTKNQVSLTCLVKGFYPSDIAVEWESNGQPENNYKTTPPVLDSDGSFFLYSKLTVDKSRWQQGNVFSCSVMHEALHNHYTQKSLSLSPG
light: DIQMTQSPSSLSASVGDRVTITCKASQNVYKKLEWYQQKPGKVPKVLIYHTNILQTGVPSRFSGSGSGTDYTLTISSLQPEDVATYYCYQWNSGPTFGGGTKVEIKRTVAAPSVFIFPPSDEQLKSGTASVVCLLNNFYPREAKVQWKVDNALQSGNSQESVTEQDSKDSTYSLSSTLTLSKADYEKHKVYACEVTHQGLSSPVTKSFNRGECGGGGSGGGGSGGGGSGGGGSQVQLVQSGAEVKKPGASVKVSCKASGYTFAGFEMHWVRQAPGQGLEWMGAIDPKTGGTDYNQKFKDRVTMTRDTSISTAYMELSRLRSDDTAVYYCARDLGYFDVWGQGTLVTVSSGGGGSGGGGSGGGGSGGGGSDIQMTQSPSSLSASVGDRVTITCRASQDIRSNLNWYQQKPGGAVKLLIYYTSRLHSGVPSRFSGSGSGTDYTLTISSLQPEDFATYFCQQSEKLPRTFGGGTKVEIR
notes: Anti-PD-L1/CD137: Ly076 heavy chain; Ly076 light chain fused to Ly1630 scFv (VH-VL)
In the case of B1, the binding result [1] is reported as “binds”, the “EC50 (read off the curve)” value [2] is reported as ~0.2 µg/mL and the binding result [3] is reported as “binds”.

B2: Ly348 (bispecific antibody, human IgG1, kappa)
heavy: QVQLVQSGAEVKKPGASVKVSCKASGYTFTDFWMSWVRQAPGQGLEWMGQIYPNTGTTHSNEKFKGRVTMTRDTSTSTVYMELSSLRSEDTAVYYCARSYHISTTPNWFAYWGQGTLVTVSSASTKGPSVFPLAPSSKSTSGGTAALGCLVKDYFPEPVTVSWNSGALTSGVHTFPAVLQSSGLYSLSSVVTVPSSSLGTQTYICNVNHKPSNTKVDKKVEPKSCDKTHTCPPCPAPELLGPSVFLFPPKPKDTLMISRTPEVTCVVVDVSHEDPEVKFNWYVDGVEVHNAKTKPREEQYNSTYRVVSVLTVLHQDWLNGKEYKCKVSNKALPAPIEKTISKAKGQPREPQVYTLPPSREEMTKNQVSLTCLVKGFYPSDIAVEWESNGQPENNYKTTPPVLDSDGSFFLYSKLTVDKSRWQQGNVFSCSVMHEALHNHYTQKSLSLSPG
light: DIQMTQSPSSLSASVGDRVTITCKASQNVYKKLEWYQQKPGKVPKVLIYHTNILQTGVPSRFSGSGSGTDYTLTISSLQPEDVATYYCYQWNSGPTFGGGTKVEIKRTVAAPSVFIFPPSDEQLKSGTASVVCLLNNFYPREAKVQWKVDNALQSGNSQESVTEQDSKDSTYSLSSTLTLSKADYEKHKVYACEVTHQGLSSPVTKSFNRGECGGGGSGGGGSGGGGSGGGGSDIQMTQSPSSLSASVGDRVTITCRASQDIRSNLNWYQQKPGGAVKLLIYYTSRLHSGVPSRFSGSGSGTDYTLTISSLQPEDFATYFCQQSEKLPRTFGGGTKVEIRGGGGSGGGGSGGGGSGGGGSQVQLVQSGAEVKKPGASVKVSCKASGYTFAGFEMHWVRQAPGQGLEWMGAIDPKTGGTDYNQKFKDRVTMTRDTSISTAYMELSRLRSDDTAVYYCARDLGYFDVWGQGTLVTVSS
notes: Anti-PD-L1/CD137: Ly076 heavy chain; Ly076 light chain fused to Ly1630 scFv (VL-VH)
With B2 the binding result [1] was “binds”, the “EC50 (read off the curve)” value [2] was ~0.1 µg/mL and the binding result [3] was “binds”.

B3: Ly346 (bispecific antibody, human IgG1, kappa)
heavy: QVQLVQSGAEVKKPGASVKVSCKASGYTFTDFWMSWVRQAPGQGLEWMGQIYPNTGTTHSNEKFKGRVTMTRDTSTSTVYMELSSLRSEDTAVYYCARSYHISTTPNWFAYWGQGTLVTVSSASTKGPSVFPLAPSSKSTSGGTAALGCLVKDYFPEPVTVSWNSGALTSGVHTFPAVLQSSGLYSLSSVVTVPSSSLGTQTYICNVNHKPSNTKVDKKVEPKSCDKTHTCPPCPAPELLGPSVFLFPPKPKDTLMISRTPEVTCVVVDVSHEDPEVKFNWYVDGVEVHNAKTKPREEQYNSTYRVVSVLTVLHQDWLNGKEYKCKVSNKALPAPIEKTISKAKGQPREPQVYTLPPSREEMTKNQVSLTCLVKGFYPSDIAVEWESNGQPENNYKTTPPVLDSDGSFFLYSKLTVDKSRWQQGNVFSCSVMHEALHNHYTQKSLSLSPGGGGGSGGGGSGGGGSGGGGSQVQLVQSGAEVKKPGASVKVSCKASGYTFAGFEMHWVRQAPGQGLEWMGAIDPKTGGTDYNQKFKDRVTMTRDTSISTAYMELSRLRSDDTAVYYCARDLGYFDVWGQGTLVTVSSGGGGSGGGGSGGGGSGGGGSDIQMTQSPSSLSASVGDRVTITCRASQDIRSNLNWYQQKPGGAVKLLIYYTSRLHSGVPSRFSGSGSGTDYTLTISSLQPEDFATYFCQQSEKLPRTFGGGTKVEIR
light: DIQMTQSPSSLSASVGDRVTITCKASQNVYKKLEWYQQKPGKVPKVLIYHTNILQTGVPSRFSGSGSGTDYTLTISSLQPEDVATYYCYQWNSGPTFGGGTKVEIKRTVAAPSVFIFPPSDEQLKSGTASVVCLLNNFYPREAKVQWKVDNALQSGNSQESVTEQDSKDSTYSLSSTLTLSKADYEKHKVYACEVTHQGLSSPVTKSFNRGEC
notes: Anti-PD-L1/CD137: Ly076 heavy chain fused to Ly1630 scFv (VH-VL); Ly076 light chain
For B3, the binding result [1] was “binds”, the “EC50 (read off the curve)” value [2] was ~0.1 µg/mL and the binding result [3] was “binds”.

B4: Ly299 (bispecific antibody, human IgG1, kappa)
heavy: QVQLVQSGAEVKKPGASVKVSCKASGYTFTDFWMSWVRQAPGQGLEWMGQIYPNTGTTHSNEKFKGRVTMTRDTSTSTVYMELSSLRSEDTAVYYCARSYHISTTPNWFAYWGQGTLVTVSSASTKGPSVFPLAPSSKSTSGGTAALGCLVKDYFPEPVTVSWNSGALTSGVHTFPAVLQSSGLYSLSSVVTVPSSSLGTQTYICNVNHKPSNTKVDKKVEPKSCDKTHTCPPCPAPELLGPSVFLFPPKPKDTLMISRTPEVTCVVVDVSHEDPEVKFNWYVDGVEVHNAKTKPREEQYNSTYRVVSVLTVLHQDWLNGKEYKCKVSNKALPAPIEKTISKAKGQPREPQVYTLPPSREEMTKNQVSLTCLVKGFYPSDIAVEWESNGQPENNYKTTPPVLDSDGSFFLYSKLTVDKSRWQQGNVFSCSVMHEALHNHYTQKSLSLSPGGGGGSGGGGSGGGGSGGGGSDIQMTQSPSSLSASVGDRVTITCRASQDIRSNLNWYQQKPGGAVKLLIYYTSRLHSGVPSRFSGSGSGTDYTLTISSLQPEDFATYFCQQSEKLPRTFGGGTKVEIRGGGGSGGGGSGGGGSGGGGSQVQLVQSGAEVKKPGASVKVSCKASGYTFAGFEMHWVRQAPGQGLEWMGAIDPKTGGTDYNQKFKDRVTMTRDTSISTAYMELSRLRSDDTAVYYCARDLGYFDVWGQGTLVTVSS
light: DIQMTQSPSSLSASVGDRVTITCKASQNVYKKLEWYQQKPGKVPKVLIYHTNILQTGVPSRFSGSGSGTDYTLTISSLQPEDVATYYCYQWNSGPTFGGGTKVEIKRTVAAPSVFIFPPSDEQLKSGTASVVCLLNNFYPREAKVQWKVDNALQSGNSQESVTEQDSKDSTYSLSSTLTLSKADYEKHKVYACEVTHQGLSSPVTKSFNRGEC
notes: Anti-PD-L1/CD137: Ly076 heavy chain fused to Ly1630 scFv (VL-VH); Ly076 light chain
For B4, the binding result [1] was “binds”, the “EC50 (read off the curve)” value [2] was ~0.1 µg/mL and the binding result [3] was “binds”.
